In publication PMC3590144, “Determination of the Structure of the Catabolic N-Succinylornithine Transaminase (AstC) from Escherichia coli” (PLoS ONE, 2013):

Assays:
Test in all cases: purified protein
Details in all cases: PLP-reconstituted holo-enzyme, 200 µM alpha-ketoglutarate, 500 µM NAD+, 5 U GDH, 10 mM Tris-HCl pH 8.0
[1] = substrate: NCCC[C@H](N)C(=O)O
[2] = substrate: CC(=O)N[C@@H](CCCN)C(=O)O; format: biochemical, Escherichia coli
[3] = substrate: NCCC[C@H](NC(=O)CCC(=O)O)C(=O)O; format: biochemical, Escherichia coli

B1: AstC (Escherichia coli K-12) (protein)
chain: MSQPITRENFDEWMIPVYAPAPFIPVRGEGSRLWDQQGKEYIDFAGGIAVNALGHAHPELREALNEQASKFWHTGNGYTNEPVLRLAKKLIDATFADRVFFCNSGAEANEAALKLARKFAHDRYGSHKSGIVAFKNAFHGRTLFTVSAGGQPAYSQDFAPLPADIRHAAYNDINSASALIDDSTCAVIVEPIQGEGGVVPASNAFLQGLRELCNRHNALLIFDEVQTGVGRTGELYAYMHYGVTPDLLTTAKALGGGFPVGALLATEECARVMTVGTHGTTYGGNPLASAVAGKVLELINTPEMLNGVKQRHDWFVERLNTINHRYGLFSEVRGLGLLIGCVLNADYAGQAKQISQEAAKAGVMVLIAGGNVVRFAPALNVSEEEVTTGLDRFAAACEHFVSRGSS
notes: full-length, native untagged, no plasmid; purified from E. coli BL21(DE3) by Ni-NTA and size exclusion as apo-protein, reconstituted with PLP; about 406 residues; dimer
In the case of B1, the Km [1] is reported as 4,391 µM, the kcat [1] is reported as 3.5 s⁻¹ and the kcat/Km [1] is reported as 797 M⁻¹ s⁻¹. It also gave a Km [2] of 338 µM, a kcat [2] of 4.7 s⁻¹ and a kcat/Km [2] of 13900 M⁻¹ s⁻¹. The Km [3] was 284 µM, the kcat [3] was 3 s⁻¹ and the kcat/Km [3] was 10600 M⁻¹ s⁻¹.
